Experiment [1] addresses T1, HLA-A2 (human).
T1 construct: whole, on cells; also called HLA-A2.1; MHC-class I A2
As to the kind of experiment: flow cytometry of HLA-A2 on T2A2 cells, peptide 0 to 50 µg/ml. The procedure: (§1) Peptide Binding to HLA-A2. […] Briefly, 1×10⁶ cells in serum-free Iscove's modified Dulbecco's complete medium were incubated with peptides at a concentration of 50 μg/ml in 24 well culture plates at 37° C. in 5% CO₂. Flow cytometry for peptide binding was performed using T2 cells and single-color analysis. After cells were washed three times in DPBS, as described above, they were incubated for 1 h with HLA-A2 specific MAb (One Lambda, Inc.) using […] of a 1× working dilution per 10⁶ cells. UPC-10 (Cappel/Organon Teknika) was used as isotype control. The cells were washed three times and incubated with 1:100 dilution of FITC-labeled anti-mouse IgG (Becton Dickinson). Analysis was conducted with the FACScan, as described above. Cells were maintained on ice during all cell preparation and staining.
(In flow cytometry, cells or beads pass a laser one at a time.)

In experiment [2] the target is T1, HLA-A2. As to the kind of experiment: flow cytometry of HLA-A2 on T2A2 cells. The procedure:
as §1

Experiment [3] deals with T1, HLA-A2. As to the kind of experiment: flow cytometry of HLA-A2 on peptide-loaded T2A2 cells. The procedure: as §1

B1: PSA-3 (L-155) also called PSA-3A (peptide)
peptide: VLSNDVCAQV
notes: Synthetic analog peptide; also called agonist peptide PSA-3A
Consider B1, for which the binding result with HLA-A2 [1] is on record as “binds”.

B2: PSA-3 (Y-154/L-155) (peptide)
peptide: YLSNDVCAQV
notes: Synthetic analog peptide; also called PSA-3 (L155/Y154)
In the case of B2, in the experiment with HLA-A2 [2], the binding result is “binds”.

B3: PSA-3 (L-163) (peptide)
peptide: VISNDVCAQL
notes: Synthetic analog peptide
Regarding B3, the binding result in the experiment with HLA-A2 [3] is listed as “no binding (tested: 0 to 50 µg/ml)”.

B4: PSA-3 (Y-154) (peptide)
peptide: YISNDVCAQV
notes: Synthetic analog peptide
Take B4: the binding result in the experiment with HLA-A2 [2] was “binds”.

For the origin of these results see patent US20050054575A1 (US Dept. of Health and Human Services, published 2005).
